Results published in US20230312671A1 (ST JUDE CHILDREN S RESEARCH HOSPITAL, published 2023).
Where no end group is shown, it is not given here. The star is where a group is joined. Biotin = O=C1N[C@H]2[C@H](CS[C@H]2CCCCC(=O)*)N1; Ahx = NCCCCCC(=O)O

Molecular target: T1, Glucose-regulated-protein 78 (GRP78), cell surface (UniProt P11021 19-654, limits assumed)
T1 construct: whole, on cells; The target was endogenous GRP78 on human tumour cell lines; No recombinant GRP78 was used; also called BiP; HSPA5
T1 sequence (P11021 19-654 limits assumed): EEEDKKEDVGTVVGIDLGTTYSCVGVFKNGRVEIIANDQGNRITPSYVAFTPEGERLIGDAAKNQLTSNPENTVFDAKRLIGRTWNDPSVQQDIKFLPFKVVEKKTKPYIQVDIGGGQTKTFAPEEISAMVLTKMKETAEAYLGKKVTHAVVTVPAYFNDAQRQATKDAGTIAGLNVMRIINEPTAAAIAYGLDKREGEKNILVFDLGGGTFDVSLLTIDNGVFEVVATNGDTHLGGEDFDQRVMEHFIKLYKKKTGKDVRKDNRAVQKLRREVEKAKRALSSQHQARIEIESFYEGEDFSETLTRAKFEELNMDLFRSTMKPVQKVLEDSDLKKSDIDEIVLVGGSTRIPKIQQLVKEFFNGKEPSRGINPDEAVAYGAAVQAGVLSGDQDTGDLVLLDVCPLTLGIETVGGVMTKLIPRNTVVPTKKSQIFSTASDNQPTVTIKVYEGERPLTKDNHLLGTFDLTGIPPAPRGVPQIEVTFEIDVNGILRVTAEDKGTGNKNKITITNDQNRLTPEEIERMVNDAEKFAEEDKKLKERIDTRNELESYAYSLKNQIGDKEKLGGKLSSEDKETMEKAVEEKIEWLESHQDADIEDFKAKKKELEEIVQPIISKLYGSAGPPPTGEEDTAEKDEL
Assay: flow cytometry on AML and solid tumor cell lines, Streptavidin PE detection
From the text: Anti-KDEL antibody for detection of cell surface GRP78 (Abcam, Clone-10C3; Cat. No. ab115638) and Streptavidin PE (BioLegend, San Diego, CA. Cat. No 405204 were used for flow cytometric analysis. A GRP78-binding peptide ([…] (SEQ ID NO: 1)) with an N-terminal Biotin tag (Biotin-Ahx-[…] (SEQ ID NO: 71)) was obtained from Genscript). The following antibodies purchased from BD Biosciences were used for flow cytometry: CD4, CD8, CCR7 FITC, CD45RA APC, CD19 APC, CD19 PE, CD8 APC-H7, CD4-KrO, TIM3 PE-Cy7, LAG3 PE, and PD1 BV605. Recombinant Human ErbB2/Her2 Fc Chimera Protein (R&D Systems, Cat. No 1129-ER) was used to detect HER2 CAR. Half a million Transduced and Non-Transduced T Cells were washed with 1×PBS and the cells were incubated with 3 μL of antibody and Fixable Live Dead aqua stain (Thermo Fisher Scientific, L34965) on ice and protected from light for 30 mins. Cells were washed with 1×PBS+2% FBS. FACS was carried out using FACS Canto II or Lyric (BD Biosciences). The analysis was performed using FlowJo 10.5.3 software (BD Biosciences, San Jose, CA).

B1: biotin-conjugated GRP78-binding peptide (Biotin-Ahx-CTVALPGGYVRVC) (peptide)
peptide: {Biotin-Ahx}-CTVALPGGYVRVC
modifications: cysteine pairing not given here
notes: Synthetic 13-mer from Genscript, detected with Streptavidin PE in flow cytometry; also called biotin-conjugated peptide
- binding result: binds
